The values that follow come from patent publication US20230322882A1 (NANJING NORMAL UNIVERSITY, published 2023).

Assay [1] deals with T1, CD25, CD122 and CD132 receptor molecules on HEK-Blue IL-2 cells (UniProt P01589 22-272; P14784 27-551; P31785 23-369, limits assumed).
T1 sequence (looked up) 1: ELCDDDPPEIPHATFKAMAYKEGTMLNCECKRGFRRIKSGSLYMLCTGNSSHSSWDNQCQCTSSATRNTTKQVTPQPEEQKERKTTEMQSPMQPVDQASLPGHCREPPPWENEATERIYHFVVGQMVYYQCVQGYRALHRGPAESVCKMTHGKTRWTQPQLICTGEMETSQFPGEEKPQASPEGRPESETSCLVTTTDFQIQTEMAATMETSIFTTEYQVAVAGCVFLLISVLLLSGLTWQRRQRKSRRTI
T1 sequence (looked up) 2: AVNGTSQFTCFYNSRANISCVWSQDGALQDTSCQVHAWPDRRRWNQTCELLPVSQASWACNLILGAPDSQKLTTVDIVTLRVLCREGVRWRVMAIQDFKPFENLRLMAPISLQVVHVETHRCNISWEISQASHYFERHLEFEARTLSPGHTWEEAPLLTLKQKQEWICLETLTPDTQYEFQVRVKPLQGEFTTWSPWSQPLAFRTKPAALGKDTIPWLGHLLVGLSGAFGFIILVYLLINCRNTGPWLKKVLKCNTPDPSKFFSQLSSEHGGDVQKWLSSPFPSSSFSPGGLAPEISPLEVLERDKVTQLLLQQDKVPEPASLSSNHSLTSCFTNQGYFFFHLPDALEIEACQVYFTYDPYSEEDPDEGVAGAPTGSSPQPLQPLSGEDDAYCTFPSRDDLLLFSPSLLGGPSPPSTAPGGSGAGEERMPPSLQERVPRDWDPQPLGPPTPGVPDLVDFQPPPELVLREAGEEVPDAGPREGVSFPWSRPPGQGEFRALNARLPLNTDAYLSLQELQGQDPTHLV
T1 sequence (looked up) 3: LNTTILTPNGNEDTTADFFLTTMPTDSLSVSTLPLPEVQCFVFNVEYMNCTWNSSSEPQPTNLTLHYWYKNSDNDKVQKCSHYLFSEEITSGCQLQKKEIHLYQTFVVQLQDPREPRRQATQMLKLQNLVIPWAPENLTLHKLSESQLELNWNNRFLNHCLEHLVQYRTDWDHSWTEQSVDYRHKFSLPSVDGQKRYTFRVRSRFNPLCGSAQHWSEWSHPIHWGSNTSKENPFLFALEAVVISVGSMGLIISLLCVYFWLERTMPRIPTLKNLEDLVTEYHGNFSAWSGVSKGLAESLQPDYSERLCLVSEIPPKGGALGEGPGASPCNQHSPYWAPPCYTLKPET
Nature of the assay: cell-based or functional assay.

Assay [2] addresses T1, CD25, CD122 and CD132 receptor …. As to the kind of experiment: cell-based or functional assay. The source holds these as a separate data set.

Where a chain is given by its changes, count along the chain named. Where two headings read alike, the source gives them in different places.

B1: Polypeptide dimer 1 (SEQ ID NO: 31 + SEQ ID NO: 32) (Fc fusion)
chain 1: HHHHHHTCPPCPAPEAAGGPSVFLFPPKPKDTLMISRTPEVTCVVVDVSHEDPEVKFNWYVDGVEVHNAKTKPREEQYNSTYRVVSVLTVLHQDWLNGKEYKCKVSNKALGAPIEKTISKAKGQPREPQVYTLPPCREEMTKNQVSLWCLVKGFYPSDIAVEWESNGQPENNYKTTPPVLDSDGSFFLYSKLTVDKSRWQQGNVFSCSVMHEALHNHYTQKSLSLSPGGGGGSGGGGSNFHLRPRDLISNINVIVLELKGSETTFMCEYADETATIVEFLNRWITFSQSIISTLTGSGPASSSTKKTQLQLEHLLLDLQMILNGINNYKNPKLTRMLTFKFYMPKKATELKHLQCLEEELKPLEEVLNLAQSK
chain 2: HTCPPCPAPEAAGGPSVFLFPPKPKDTLMISRTPEVTCVVVDVSHEDPEVKFNWYVDGVEVHNAKTKPREEQYNSTYRVVSVLTVLHQDWLNGKEYKCKVSNKALGAPIEKTISKAKGQPREPQVCTLPPSREEMTKNQVSLSCAVKGFYPSDIAVEWESNGQPENNYKTTPPVLDSDGSFFLVSKLTVDKSRWQQGNVFSCSVMHEALHNHYTQKSLSLSPGGGGGSGGGGSELCDDDPPEIPHATFKAMAYKEGTMLNCECKRGFRRIKSGSLYMLCTGNSSHSSWDNQCQCTSSATRNTTKQVTPQPEEQKERKTTEMQSPMQPVDQASLPGHCREPPPWENEATERIYHFVVGQMVYYQCVQGYRALHRGPAESVCKMTHGKTRWTQPQLICTGDYKDDDDK
Take B1: the “EC50 (pM), STAT5-regulated SEAP reporter in HEK-Blue IL-2 cells” value in assay [1] worked out at 10.8 pM.

B2: Polypeptide dimer 2 (SEQ ID NO: 33 + SEQ ID NO: 34) (Fc fusion)
chain 1: B1 chain 1 with Y131C, C136S, W148S, L150A, Y189V
chain 2: B1 chain 2 with C126Y, S131C, S143W, A145L, V184Y
With B2, the “EC50 (pM), STAT5-regulated SEAP reporter in HEK-Blue IL-2 cells” value in assay [2] is 10.2 pM.
